Data as given in the DeepSol protein solubility set.

Assay: soluble on expression in E. coli; label from the status in PepcDB or PDB records

Sequence	soluble on expression in E. coli
MKLKDCVMIKKIFALPVIEQISPVLSRRKLDELDLIVVDHPQVKASFALQGAHLLSWKPAGEEEVLWLSNNTPFKNGVAIRGGVPVCWPWFGPAAQQGLPAHGFARNLPWTLKSHHEDADGVALTFELTQSEETKKFWPHDFTLLAHFRVGKTCEIDLESHGEFETTSALHTYFNVGDIAKVSVSGLGDRFIDKVNDAKENVLTDGIQTFPDRTDRVYLNPQDCSVINDEALNRIIAVGHQHHLNVVGWNPGPALSISMGDMPDDGYKTFVCVETAYASETQKVTKEKPAHLAQSIRVAKRLEHHHHHH	not soluble
MGSDKIHHHHHHMGIRILNDLMLDKSALLFGVSKYLEKGIITGNILIHKSLLAELEKESNDGLVSAEIALDEVKKLKDITERILVNFEIVGENSKKGEANELSREYCLEKGCIMVTADETQKKICDVMGIQYSFLQPLEQSLSFESFFDDETMSLHIKEDTVPRAKKGKPGNWKFVNLSNKPMLSVDVKRIANEIINGVRFIKGSFIEIERKGSLIIQLGNYRVVITRPPLSDGWEITITRPVVRKRLEDYGLDERLIKRLEERAEGIIIAGAPGMGKTTFAQALSEYYMRLGKIVKTIESPRDMHLPPEITQYSKNYAEIGELHDILLLSRPDYTVYDEMRNDEDFKLYIDLRLAGIGMVGVVHATSPIDAIHRFVNRVDIGTIPNILDTIIFINSGNVSKVYTLEITVKVPAGLKEADLARPVVEIKDLVTGNTEYEIYVFGEQTMIVPVNRGITLNNMEFKISKIVNNIIPKATVKYEDGEYVIVIPKEEIGKYNRKLVQRLKRLEKKNNIKIKIKLSD	not soluble
MFEKVRKIIAEQLGIEEDEITMESSFIDDLGADSLDIVELIMALEEEFDLEIPDSEAEKITTVGDVVEYIKNNS	not soluble
MVMTVRVIAPDKTVWDAPAEEVILPSTTGQLGILSNHAPLLTALETGVMRVRQDREWVAIALMGGFAEVENNEVTILVNGAERGDTIDPQEAQQTLEIAEANLRKAEGARQKIEANLALRRARTRVEASNTISS	soluble
MGSDKIHHHHHHMNQMQQWKPDFLGEGYQNLTIELGDDPDNETDVVTTVVRYNPDNHADESFAARPALLWVHGMTDYFFHTEFAEFFHNAGFAVYGIDLRKCGRSYRPGQQWHYTSDLAHYFPDLTAAAEVISSTHPELVPVAHSTGGLIVPLWMSQMRTSNPAAIEKIPALVLNSPWLDMMYPPLFIKLITPMVRVLGKRSPTTIIPGGGLGAYGKSIHKNFYGEWDFDTTIKPVEGHKKSIGWLRAVMAGQAEIHHDHVNVGVDVLTLCSNKSWLKSEYTEDTNTSDAVLDVKHIQKWAPHLSSPSSRVDVEIIDNARHDIFLSRKPARDHASEVLNNWLQSKLSSLKPSQ	not soluble
SQDEVETEVIIKDIFKQGKICFIPQYQFQSNHMDMVRLTSPEEIALLPKTSWNIHQPGEGDVREEALSTGGLDLIFLPGLGFDKDGNRLGRGKGYYDTYLKRCVQHQEVKPYTMALAFKEQICPQIPVDEHDMKVDEVLYEDSPAS	not soluble
MGSDKIHHHHHHMPRKTATATKLFVLDTNVLMHDPTSLFRFEEHDVYVPIATLEELDQHKKGMTEVSRNARQASRFLDEIVRKLDSIDEGVPLAPHSHNAATGRLFLQTQAISGDIPVNLPTSKVDNQILGVVLFLSRHHTKRQVILVSKDINMRIKARALGLPAEDYFNDKVLEDTDLLYPGLRELPADFWDTHGKGMESWQANGHTYYRVKGPLVASLLPNEFVFQEGASPLYAKVLKVEGKHAEMVTIRDFGHHKNNVWGITARNREQNFALNVLMDPEIDFVSLLGQAGTGKTLLTLAAGLAQVLDKKIYSEIIMTRVTVPVGEDIGFLPGTEEEKMTPWMGALEDNLDVLNKSDDEGGDWGRAATQDLIRSRIKVKSLNFMRGRTFLNKFLIIDEAQNLTPKQMKTLITRAGPGTKVVCLGNIAQIDTPYLTEGSSGLTYVVDHFKGWPHNGHVTLQRGERSRLADYAAEVL	not soluble
MSLKKVVIIGGGAAGMSAASRVKRLKPEWDVKVFEATEWVSHAPCGIPYVVEGLSTPDKLMYYPPEVFIKKRGIDLHLNAEVIEVDTGYVRVRENGGEKSYEWDYLVFANGASPQVPAIEGVNLKGVFTADLPPDALAIREYMEKYKVENVVIIGGGYIGIEMAEAFAAQGKNVTMIVRGERVLRRSFDKEVTDILEEKLKKHVNLRLQEITMKIEGEERVEKVVTDAGEYKAELVILATGIKPNIELAKQLGVRIGETGAIWTNEKMQTSVENVYAAGDVAETRHVITGRRVWVPLAPAGNKMGYVAGSNIAGKELHFPGVLGTAVTKFMDVEIGKTGLTEMEALKEGYDVRTAFIKASTRPHYYPGGREIWLKGVVDNETNRLLGVQVVGSDILPRIDTAAAMLMAGFTTKDAFFTDLAYAPPFAPVWDPLIVLARVLKEGHHHHHH	soluble
MGSDKIHHHHHHGTVSWNLREMLAHAEETRKLMPICMDVRAIMATIQRKYKGIKIQEGIVDYGVRFFFYTSKEPVASIITKLNSLNEPLVTMPIGYVTHGFNLEEAARCMRSLKAPAVVSVSSPDAVTTYNGYLTSSSKTSEEHFVETVSLAGSYRDWSYSGQRTELGVEFLKRGDKIVYHTLESPVEFHLDGEVLSLDKLKSLLS	soluble
MGSDKIHHHHHHMSKAKRLMELMMVINRKRRFTVKELAEEFSVSSRTILRDLQELSELGVPLYSEVGPHGGYEVLNERVLPPIAFTEEEAVAIFFTVHALRHFSALPFQAESSSVNHKFYSYMPEDVKERIDQLKNRFDFETPMRPLATPYLPTLLDAAIKQNVVSIEYETSQEKTKREIQPIGVYARDGFWYCPSYCFLREDMRLFRCDRITYVTEQTTNNPLNFRHVHLGNWQSYMKQERNVLDFYVELSQDGVQRCVAEQWLKPHLHIRQDGSGWLEGPFPESEVPYFSYYFIGFGHDATVKQPVQLVTLIKKSLRELLSKYNGEKEGLPQKSF	not soluble
MGVSPAAPASGIRRPCYLVLSSHDFRTPRRANIHFITDQLALRGTTRFFSLRYSRLSRMKGDMRLPLDDTANTVVSHNGVDCYLWRTTVHPFNTRRSWLRPVEDAMFRWYAAHPPKQLLDWMRESDVIVFESGIAVAFIELAKRVNPAAKLVYRASDGLSTINVASYIEREFDRVAPTLDVIALVSPAMAAEVVSRDNVFHVGHGVDHNLDQLGDPSPYAEGIHAVAVGSMLFDPEFFVVASKAFPQVTFHVIGSGMGRHPGYGDNVIVYGEMKHAQTIGYIKHARFGIAPYASEQVPVYLADSSMKLLQYDFFGLPAVCPNAVVGPYKSRFGYTPGNADSVIAAITQALEAPRVRYRQCLNWSDTTDRVLDPRAYPETRLYPHPPTAAPQLSSEAALSHHHHHHH	soluble
MDQVVVFQKMFEQVRKEQNFSWFYSELKHHRIAHYIYYLATDNIRIITHDDTVLLLRGTRNLLKVSTTKNPAKIKEAALLHICGKSTFREYCSTLAGAGVFRWVTDVNHNKRSYYAIDNTLLYIEDVENNKPLI	not soluble
MGSSHHHHHHGKTIFVIVPTNEEQVAFLEALAKQDELNFDWQNPPTEPGQPVVILIPSDMVEWFLEMLKAKGIPFTVYVEEGGSENLYFQGGGGGGSRPYGATFIAWGLAFALRAWRCLPRERVHMCRAAHRLADAKMRQRGVGKVLMPYTGASRLMPVASYSRGNRLPSCSSTEATTRCHGFLAIGSRSPTPTHQARVDMGDNDITANSSGKTSGAAAGSAPSSCDLFLSASALESSAQFLALTHVASRQEPSSSITDRNAASVTPSGSRSASGRRAPRRSHEPFTCMSRACALDFTTLSEHGSEVPSVEPASLSAMQPTTSSSSRMHGCTGAAMTTVSLPQTPVVSGAVQSPAWLPAELARTFSDSKTPLSVCSQPSKVGPSYSQMDTLSPPTYEEAVLSSSRSSSSPRIAVLSTTMRSQRLSPAVARDGAP	soluble
MGSDKIHHHHHHMPIDLREFYQASDPSRTLFVNNSSDGKYYIDFSSVRGGDILGKLKQKITFFKPNEPTCTLFTGHIGCGKSTELLRLQAELEKLGFHVVYFESSDDLEMTDVDIADVLLAIARRVSQSLDKIILESPNKFNELLQGAWKVLNSEVTGVKVKVPNVGDFGVTSEKEKLSLSVGIGEITAKMKNDPTLREKLNQYLAPQKTKLLEAINQELLEPAIAKLKQQGKNGLVVIVDNLDRIDNRAKPWGRPQQEYLFVDQGEFLTKLNCHLIYTMPLSLKFSNDYGMLTQRFPEDPKVLPMVPVHWSDGSLHAQGMALMQQMVLARAFPDMTPEERLNKVTEIFDSAASLERLCQMSGGHVRDVLRLLNTWIMEEMSLPLTRDTLEQVIRSRQNEIMLPISEDEWQLLRHVKEKKKVSDDHGYQKLIRSRFVFEYRDCGESWFDVNPVLAEAKELQ	not soluble
MAKAPDIVDLLTLAVDRNASDLVITVGLPPMIKIDGEFHPTEHEALTPQDTRRLMYALMDEKQQRHFEEEKELDFSFSLPAKGRYRVNVFLQRGSVGGVLRVVPTVVKSFEELGLPKNIGELALTPRGLLLITGPTGSGKSTTLASMIDYINERRRAHIVTIEDPIEFFHRHKTSIINQREIGSDTHGFHKALRSVLRQAPDVILVGEMRDYETISAAITAAETGHLVMGTLHTNSAPETIDRIIDVFPEAQQEQVRVQLANNLVAVMTQQLLPKAFGGGRVLAYELMIATSAVRALIREGKSHQLVSVIQTGGQYNMITMDACLADLYKRKLITYEMGQSRAVDPKEFARLAGAAAPAASTNTGAQRRA	soluble
MSLAMINDSIEQVWRDFSIRPAAEADDATWCRRVYLDVIGRIPSLEELSEFMSDRDSNKRANLVDRLLNDDRYTEEYANHWSTVWTNLLIGRSGGTDRRDLTNRTGMQKYLRDSFAGNKTYDQMTYELVTAEGSTTPGNANFNGAVNFLVDKVNAEKGTLATSSVSRIFLGQQVQCTQCHNHPFNQWKQQKFWEFNAFFRQTRALRRFVDGTQDIESAELVSQDFAGEANDPEDALVFYELRNGLQKVAYPVFTDGTEIEKSGFVEDVNRREELGRLMLQSEYLDKMIVNRMWSMFLGYGFTRPIDDLGPHNPSSHPELLENLGKEFRANSYDLKKLITWITLSRPYQLASTLSASNEIDDPTIGESPKFSRFYLRQMSAEQLYASMVTASNAQSKGSYEQQEAERRRWLSQFVVAFGNDEGTETTTFNGSIPQALMLFNGDLTKNAISLEAGSFLDQLSQTGRSPKDRVTRLFLSGLARRPTKNEVSIASKLLVARKGDEPEMLQDMWWAILNSNEFIMQHEGHHHHHH	soluble
VQVLRLGSVGPDVKLAQSLLNKIGYPVGAVDGIYGTRTRQAVIAFQRNNGLVADGIVGPATWSVFEQFLRGYAIYYVRPGDTLYNIAGRFYTSVNSIVTANPGINPNVINIGQRLVVPYGIDVVFTDIDYTYEIMERDIQGLKARYPFLETGVAGTSVLGRNLYYLRLGTGPRQVFYNAAHHAIEWITTVLLMKFAENFLKAYSTGSRIRGYNVREIWNQSSIYIVPMVNPDGVDLVLNGLSPTNPYYADLLRWNTTGRPFSQVWSANIRGVDLNRNYPASWEEAKAQEEALGIFGPGPTRYGGPYPLSEPESSAMVSFTRTHDFRLALAYHSQGRVIYWNYLNLAPPESLTIANAFARVSGYIVLDVPYEAAYAGYKDWFIQEYRRPGFTIEVGLGQNPLPISQFNTIYNDNEEILLLASLI	not soluble
MGSDKIHHHHHHMSNHSSSIPELSDNGIRYYQTYNESLSLWPVRCKSFYISTRFGQTHVIASGPEDAPPLVLLHGALFSSTMWYPNIADWSSKYRTYAVDIIGDKNKSIPENVSGTRTDYANWLLDVFDNLGIEKSHMIGLSLGGLHTMNFLLRMPERVKSAAILSPAETFLPFHHDFYKYALGLTASNGVETFLNWMMNDQNVLHPIFVKQFKAGVMWQDGSRNPNPNADGFPYVFTDEELRSARVPILLLLGEHEVIYDPHSALHRASSFVPDIEAEVIKNAGHVLSMEQPTYVNERVMRFFNA	soluble
